“Also recorded” adds a separate entry of the source.

The test system of one test is PC#/PSC27 cells. The experiment in a line: Subcutaneous grafts of PC#/PSC27 cells treated with systemic RAPA and MIT. In kind it is in vivo. As to conditions: RAPA used with MIT.
The next test concerns PSC27 fibroblasts. The test can be described thus: Induction of DDSP factors in PSC27 fibroblasts with mTOR inhibition before ionizing radiation. The test is classed as cell-based, human. As to conditions: summary statement. The method, then: The effects of inhibiting mTOR signaling in the context of genotoxic stress was evaluated. PSC27 fibroblasts were treated with Rapamycin (RAPA) prior to ionizing radiation.

Test [1] deals with epithelial CaP cells. The test can be described thus: Proliferation of epithelial CaP cells on GDNF stimulation. In kind it is cell-based, human. The method, then: (§1) To study the effect GDNF has on tumor growth, we have used two experimental approaches have been used. 1) the effect of purified GDNF on cell proliferation of epithelial cells was analyzed and 2) GDNF over-expressing and secreting human prostate fibroblasts were generated which can also be used in co-culture and in vivo experiments. […] GDNF can act in the absence of RET via GFRA1 activating SFK pathways or through the activation of the RET/GFRA1 complex activating the Ras/Raf/Erk pathway. In our experiments we determined that both pathways were activated in GDNF sensitive cell lines (FIG. 23B). […] The number of epithelial cell lines are being expanded and analyzed after GDNF stimulation. GDNF-activated SFK and Erk pathways can lead to reduced sensitivity to pro-apoptotic treatments or decrease drug sensitivity.

Test [2] concerns epithelial CaP cells. The experiment in a line: Src/SFK and Erk pathway activation in CaP cells on GDNF stimulation. The test is classed as cell-based, human. The settings on record: GDNF responsive cells. The method, then: as §1
In a further test the test system is PSC27 stromal cells. The test can be described thus: SFK and Ras/Raf/Erk pathway activation in PSC27 stromal cells on GDNF stimulation. In kind it is cell-based, human. The source says:
Stimulation of epithelial CaP cells with GDNF leads to the activation of the SFK and the Ras/Raf/Erk pathways (FIG. 25). To determine if the same pathways are involved in the pro-proliferative effect on the PSC27 stromal cells, PSC27 cells were stimulated with hrGDNF or conditioned medium from PSC27/iGDNF-V5 cells. […] Additional more downstream effector proteins potentially involved in these effects are also being examined.

For `CO[C@H]1C[C@@H]2CC[C@@H](C)[C@@](O)(O2)C(=O)C(=O)N2CCCC[C@H]2C(=O)O[C@H]([C@H](C)C[C@@H]2CC[C@@H](O)[C@H](OC)C2)CC(=O)[C@H](C)/C=C(\C)[C@@H](O)[C@@H](OC)C(=O)[C@H](C)C[C@H](C)/C=C/C=C/C=C/1C` [RAPA, Rapamycin], the “reduction in tumor volumes” value in the test on PC#/PSC27 cells was “approximately 60%”.
As for `CO[C@H]1C[C@@H]2CC[C@@H](C)[C@@](O)(O2)C(=O)C(=O)N2CCCC[C@H]2C(=O)O[C@H]([C@H](C)C[C@@H]2CC[C@@H](OCCO)[C@H](OC)C2)CC(=O)[C@H](C)/C=C(\C)[C@@H](O)[C@@H](OC)C(=O)[C@H](C)C[C@H](C)/C=C/C=C/C=C/1C` [RAD001], the “suppression of key DDSP proteins including Wnt16B” value with PSC27 fibroblasts was “effectively suppress”.

B1: GDNF: glial cell line-derived neurotrophic factor, purified / human recombinant protein used to stimulate cells (protein)
chain: SPDKQMAVLPRRERNRQAAAANPENSRGKGRRGQRGKNRGCVLTAIHLNVTDLGLGYETKEELIFRYCSGSCDAAETTYDKILKNLSRNRRLVSDKVGQACCRPIAFDDDLSFLDDNLVYHILRKHSAKRCGCI
Turning to B1, the “proliferation of Ret and GFRA1 negative cells” value in the test on epithelial CaP cells [1] (after 3 or 5 days) is “did not show any increase in proliferation; also recorded: do not show any differences in proliferation”. Moreover, in the test on epithelial CaP cells [1] (in the culture medium), the “GDNF concentration of maximum stimulation of proliferation” value is on record as “around 10 ng/ml”. Further, in the test on epithelial CaP cells [1] (increasing concentrations of GDNF), the “proliferation of cells expressing GDNF receptors Ret and/or GFRA1” value is “induced cell proliferation; also recorded: increased proliferation”. Besides, the “Src (SFK) and Erk (Ras/Raf/Erk) pathways” value in the test on epithelial CaP cells [2] is on record as “activated; also recorded: activation”. Also, in the test with PSC27 stromal cells, the “Ras/Raf/Erk and SFK pathways in stromal cells” value is on record as “stimulated; also recorded: activation”.

The values are drawn from US9759725B2, “Treatment-induced damage to the tumor micro-environment promotes cancer therapy resistance through extracellular proteins” (Fred Hutchinson Cancer Research Center, priority 2012, dated 2017).
